Test results: article PMC10622577, “Structural basis for stabilisation of the RAD51 nucleoprotein filament by BRCA2” (Nature Communications, 2023)
Entries after “also recorded” stand apart in the source; their conditions may differ. Where no end group is shown, it is not given here. MBP = maltose-binding protein (N-terminal fusion tag)

Assays:
[1] = system: RAD51–ssDNA NPF; assay: EMSA of MBP-fusion TR2 mutants binding the RAD51-ssDNA NPF; parameters: species or system human; conditions: for binding of MBP-TR2 mutant to the RAD51 NPF: ssDNA 60 nt, His6-MBP-TR2 5 min, room temperature, 25 mM HEPES pH 7.5, 150 mM NaCl, 2 mM ATP, 5 mM CaCl2, repeated once
Description: The local resolution at the TR2 site was lower than for the global map, which complicated the model fitting for the peptide. Fitting with the correct sequence register was guided by the density of the large side chains in the highly conserved TR2 region 3296-KAFQPPR-3302 (Fig. 3A). To validate our molecular model of BRCA2 TR2 association with the RAD51 NPF, we performed a mutational analysis of the RAD51–TR2 interface, targeting residues that are predicted by the structure to be important for the RAD51-TR2 interaction (Fig. 4A, B). We generated TR2 mutants as Maltose-Binding Protein (MBP) fusion proteins (Supplementary Fig. 1) and measured by EMSA their ability to bind the RAD51 NPF.
Fig. 4 Structure-based mutational analysis of the BRCA2 TR2-RAD51 interface. A Multiple sequence alignment of BRCA2 TR2 sequences, coloured according to residue type (Hse: Homo sapiens; Gga: Gallus gallus; Xla: Xenopus laevis; Dre: […]). B Drawing of TR2 and RAD51 amino acids targeted for mutagenesis. Drawing style as in D–F of Fig. 3. C–E EMSA analysis of RAD51–ssDNA NPF binding by MBP-fusion TR2 mutants K3296A, Q3299A, R3302A (C); 3A (K3296A, Q3299, R3302A), 3D (K3296D, Q3299D, R3302D) (D); S3291A, F3298A (E). The TR2 peptide was used as a control. EMSA experiments repeated once. Source data are provided as a Source Data file.
An E.coli codon-optimised gene fragment encoding residues D3260 to Y3308 of human BRCA2 was synthesised (IDT) with flanking BamHI and HindIII restriction sites and ligated into the pMAT11 expression vector[44] (Addgene plasmid #112592) to express BRCA2 TR2 as a dual-tag His6-MBP (Maltose-Binding Protein) fusion protein. pMAT11 constructs for expression of BRCA2 TR2 mutants S3291A, F3298A, K3296A, Q3299A, R3302A, the triple K3296, Q3299, […] alanine (3A) and aspartic acid (3D) mutants were produced in the same way as the wild-type construct.
All His6-MBP-BRCA2 TR2 fusion proteins were expressed and purified in an identical manner. pMat11-His6-MBP-TR2 constructs were transformed into E.coli BL21(DE3)Rosetta2 and transformed cells were used to inoculate 2YT growth medium supplemented with 50 μg/ml ampicillin. Cells were cultured until an OD600 reading of 0.7 before induction with 0.5 mM IPTG. Cell pellets were resuspended in resuspension buffer and sonicated to lyse cells in the presence of EDTA-free protease inhibitor. Cell lysate supernatant was loaded on a 5-ml HisTrap HP column pre-equilibrated with His Buffer A before elution in 40% His Buffer B. Fractions containing the His6-MBP-BRCA2 TR2 protein were pooled and purified further by size-exclusion chromatography using a 16/600 Superdex S75 pg (Cytiva) column pre-equilibrated in storage buffer. To minimise the presence of proteolytically degraded protein, a single fraction at the front of the elution peak containing His6-MBP-TR2 was retained and concentrated to at least 100 μM before flash freezing in liquid nitrogen and storage at −80 °C.
To assess RAD51 nucleoprotein (NPF) formation, wild-type and mutant RAD51 proteins were incubated with DNA in buffer: 25 mM HEPES pH 7.5, 150 mM NaCl, 2 mM DTT, 2 mM ATP, 5 mM CaCl2 for 15 minutes at room temperature. For filament binding of the TR2 peptide or His6-MBP-TR2 protein, the RAD51 NPFs were incubated with TR2 for further 5 minutes at room temperature. For filament binding of BRC4, the BRC4 peptide was pre-mixed with RAD51 for 10 minutes at room temperature before addition of DNA. For experiments with mono-streptavidin (mSA)-capped DNA, mSA (Sigma) was added in 5× molar excess of biotin labels for 15 minutes at room temperature prior to the addition of RAD51. Concentrations are provided in figures and DNA sequences for each experiment are reported in Supplementary Table 1.
Before electrophoresis, samples were mixed with a 0.5:1 volume of 50% (w/v) sucrose solution and analysed on a pre-run 0.5% (w/v) agarose gel in 0.5× TB buffer at 35 V for 2.5 hours at 4 °C. […]

[2] = target: T1, RAD51;BRCA2 TR2 peptide (Homo sapiens;Homo sapiens, UniProt Q06609;P51587 1-339;, |); assay: cryo-EM micrographs; TR2 1:0.5; filament bundling; EMSA: 25 mM HEPES pH 7.5, 150 mM NaCl, 2 mM DTT, 2 mM ATP, 5 mM CaCl2, room temperature; SPR: 25 mM HEPES pH 7.4, 100 mM NaCl, 2 mM DTT, 2 mM ATP, 5 mM CaCl2, 5 mM MgCl2; conditions: tags: untagged (co-expressed with His6-MBP-BRC4, pMBP4-RAD51);
[3] = target: T1, RAD51;BRCA2 TR2 peptide; assay: SPR; TR2 on preformed filament; ATP, Ca2+, Mg2+; EMSA: 25 mM HEPES pH 7.5, 150 mM NaCl, 2 mM DTT, 2 mM ATP, 5 mM CaCl2, room temperature; SPR: 25 mM HEPES pH 7.4, 100 mM NaCl, 2 mM DTT, 2 mM ATP, 5 mM CaCl2, 5 mM MgCl2; conditions: tags: untagged (co-expressed with His6-MBP-BRC4, pMBP4-RAD51);
[4] = target: T1, RAD51;BRCA2 TR2 peptide; assay: EMSA; TR2 enhances filament; ATP, Ca2+; EMSA: 25 mM HEPES pH 7.5, 150 mM NaCl, 2 mM DTT, 2 mM ATP, 5 mM CaCl2, room temperature; SPR: 25 mM HEPES pH 7.4, 100 mM NaCl, 2 mM DTT, 2 mM ATP, 5 mM CaCl2, 5 mM MgCl2; conditions: tags: untagged (co-expressed with His6-MBP-BRC4, pMBP4-RAD51);
[5] = target: T2, human RAD51, wild type (human, UniProt Q06609 1-339); assay: native gel or EMSA; TR2 peptide titrated on RAD51 NPFs pre-formed on fluorescein-labelled ss- or dsDNA; 25 mM HEPES pH 7.5, 150 mM NaCl, 2 mM DTT, 2 mM ATP, 5 mM CaCl2, room temperature, TR2 added for 5 minutes; 0.5% agarose gel at 4 °C; conditions: both partners purified
T2 construct: RAD51, human DNA-strand exchange protein; In all assays RAD51 stood as a nucleoprotein filament on ss- or dsDNA with ATP and CaCl2; probably the whole, untagged protein; also called WT RAD51; RAD51 NPF; source: E. coli BL21(DE3)Rosetta2, co-expressed with His6-MBP-BRCA2 BRC4, purified (HisTrap, heparin, SEC)
T2 sequence: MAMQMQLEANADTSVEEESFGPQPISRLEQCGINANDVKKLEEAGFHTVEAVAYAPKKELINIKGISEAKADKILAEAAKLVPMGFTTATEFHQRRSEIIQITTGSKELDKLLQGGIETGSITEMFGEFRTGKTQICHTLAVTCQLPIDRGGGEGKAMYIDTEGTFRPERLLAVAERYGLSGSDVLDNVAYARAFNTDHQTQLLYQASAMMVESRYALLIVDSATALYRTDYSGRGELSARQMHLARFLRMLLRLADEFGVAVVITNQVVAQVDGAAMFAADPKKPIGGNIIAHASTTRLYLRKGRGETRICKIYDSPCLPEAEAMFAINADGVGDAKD

[6] = target: T2, human RAD51, wild type; assay: native gel or EMSA; His6-MBP-TR2 fusion proteins added for 5 minutes to RAD51–ssDNA NPFs; 25 mM HEPES pH 7.5, 150 mM NaCl, 2 mM DTT, 2 mM ATP, 5 mM CaCl2, room temperature; 0.5% agarose gel; conditions: both partners purified

F3298A: His6-MBP fusion protein of BRCA2 TR2 mutant F3298A ({His6-MBP}-DDQKNCKKRRALDFLSRLPLPPPVSPICTFVSPAAQKAAQPPRSCGTKY; cysteine pairing not given here)
binding of MBP-TR2 mutant to the RAD51 NPF [1]: abolished TR2 binding to the RAD51 NPF; also recorded: complete loss of TR2 binding

K3296A: His6-MBP fusion protein of BRCA2 TR2 mutant K3296A ({His6-MBP}-DDQKNCKKRRALDFLSRLPLPPPVSPICTFVSPAAQAAFQPPRSCGTKY; cysteine pairing not given here)
binding of MBP-TR2 mutant to the RAD51 NPF [1]: modest decrease in filament binding

Q3299A: His6-MBP fusion protein of BRCA2 TR2 mutant Q3299A ({His6-MBP}-DDQKNCKKRRALDFLSRLPLPPPVSPICTFVSPAAQKAFAPPRSCGTKY; cysteine pairing not given here)
binding of MBP-TR2 mutant to the RAD51 NPF [1]: increased association with the filament

R3302A: His6-MBP fusion protein of BRCA2 TR2 mutant R3302A ({His6-MBP}-DDQKNCKKRRALDFLSRLPLPPPVSPICTFVSPAAQKAFQPPASCGTKY; cysteine pairing not given here)
binding of MBP-TR2 mutant to the RAD51 NPF [1]: modest decrease in filament binding

S3291A: His6-MBP fusion protein of BRCA2 TR2 mutant S3291A ({His6-MBP}-DDQKNCKKRRALDFLSRLPLPPPVSPICTFVAPAAQKAFQPPRSCGTKY; cysteine pairing not given here)
binding of MBP-TR2 mutant to the RAD51 NPF [1]: drastically reduced | residual binding of MBP-TR2 mutant to the RAD51 NPF ([1]; ssDNA, Fig. 4E): still able to associate with the filament; also recorded: retains a degree of binding to the filament

B1: 32-nt ssDNA Cy5 (ssDNA)
DNA: TTTTTTTTTTTCGTGTGGTACTTTTTTTTTTT
binding result ([2]; label: 5' Cy5): binds

B2: 50-nt dsDNA Cy3 (dsDNA)
DNA 1: CCGACTGACGCTCAACATAGGTACCACACGGCGAGCTCGATGCACCTCCA
DNA 2: TGGAGGTGCATCGAGCTCGCGACAAACCTTCTATGTTGAGCGTCAGTCGG
binding result ([2]; label: 3' Cy3 on strand 1, blunt ends, internal mismatched bubble about 10 nt): binds

B3: 60-nt ssDNA biotin (ssDNA)
DNA: ATGGTGTGTGTAGGTTAATGTGAGGAGGAGAGGTGAAGAAGGAGGAGAGAAGAAGGAGGC
binding result ([3]; label: 5' biotin): binds

B4: 60-bp dsDNA biotin (dsDNA)
DNA 1: ATGGTGTGTGTAGGTTAATGTGAGGAGGAGAGGTGAAGAAGGAGGAGAGAAGAAGGAGGC
DNA 2: GCCTCCTTCTTCTCTCCTCCTTCTTCACCTCTCCTCCTCACATTAACCTACACACACCAT
binding result ([3]; label: 5' biotin on strand 1, blunt): binds

B5: 60-bp dsDNA FAM (dsDNA)
DNA 1: ATGGTGTGTGTAGGTTAATGTGAGGAGGAGAGGTGAAGAAGGAGGAGAGAAGAAGGAGGC
DNA 2: GCCTCCTTCTTCTCTCCTCCTTCTTCACCTCTCCTCCTCACATTAACCTACACACACCAT
binding result ([4]; label: 5' FAM on strand 1, blunt): binds

B6: 60-nt ssDNA FAM (ssDNA)
DNA: ATGGTGTGTGTAGGTTAATGTGAGGAGGAGAGGTGAAGAAGGAGGAGAGAAGAAGGAGGC
binding result ([4]; label: 5' FAM): binds

B7: BRCA2 TR2 peptide spanning amino acids 3260 to 3308 (peptide, UniProt P51587 3260-3308, looked up)
peptide: DDQKNCKKRRALDFLSRLPLPPPVSPICTFVSPAAQKAFQPPRSCGTKY
notes: Only residues 3289 to 3304 are modelled in the PDB entries; source: synthetic peptide (synthesised commercially)
binding result [5]: binds

B8: His6-MBP-BRCA2 TR2 R3302A (domain or fragment, human, UniProt P51587 3260-3308, looked up)
chain: DDQKNCKKRRALDFLSRLPLPPPVSPICTFVSPAAQKAFQPPASCGTKY
notes: BRCA2, human, TR2 motif, residues D3260 to Y3308; source: E. coli BL21(DE3)Rosetta2, purified (HisTrap, SEC); not shown: His6, N-terminal, kept; MBP, N-terminal, kept
binding result [6]: binds

B9: His6-MBP-BRCA2 TR2 Q3299A (domain or fragment, human, UniProt P51587 3260-3308, looked up)
chain: DDQKNCKKRRALDFLSRLPLPPPVSPICTFVSPAAQKAFAPPRSCGTKY
notes: as for B8
binding result [6]: binds

B10: His6-MBP-BRCA2 TR2 K3296A (domain or fragment, human, UniProt P51587 3260-3308, looked up)
chain: DDQKNCKKRRALDFLSRLPLPPPVSPICTFVSPAAQAAFQPPRSCGTKY
notes: as for B8
binding result [6]: binds
